Experimental data as given in patent US20160347841A1 (UNIVERSIDAD NACIONAL AUT NOMA DE M XICO, published 2016).

Target: T1, DEC-205 receptor of dog spleen cells (dog, UniProt A0A8I3Q134 28-1723)
T1 construct: whole, on cells; It only reports that no 205 kDa band was isolated
Assay: immunoprecipitation from spleen white cell lysate, SDS-PAGE
Description: For this purpose Jurkat cells (the cell line of human T lymphocytes) as well as white cells obtained from the spleens of different animals (pigs and dogs) were lysed in an immunoprecipitation buffer (PBS pH 7.4, 1% Triton X-100 with protease inhibitor). […] Then, 50 μL of A-Sepharose protein (Pierce, Rockford, Ill., USA) was used for immunoprecipitation, with incubation being done for one hour at ambient temperature. The immune complexes that were formed were washed extensively. The immunoprecipitates were eluted by boiling for five minutes in a sample buffer with SDS. These precipitates were analyzed on a 10% SDS-PAGE gel under reducing conditions using molecular weight markers. […] The molecular weights are indicated.

T1 sequence (A0A8I3Q134 entry or part of it): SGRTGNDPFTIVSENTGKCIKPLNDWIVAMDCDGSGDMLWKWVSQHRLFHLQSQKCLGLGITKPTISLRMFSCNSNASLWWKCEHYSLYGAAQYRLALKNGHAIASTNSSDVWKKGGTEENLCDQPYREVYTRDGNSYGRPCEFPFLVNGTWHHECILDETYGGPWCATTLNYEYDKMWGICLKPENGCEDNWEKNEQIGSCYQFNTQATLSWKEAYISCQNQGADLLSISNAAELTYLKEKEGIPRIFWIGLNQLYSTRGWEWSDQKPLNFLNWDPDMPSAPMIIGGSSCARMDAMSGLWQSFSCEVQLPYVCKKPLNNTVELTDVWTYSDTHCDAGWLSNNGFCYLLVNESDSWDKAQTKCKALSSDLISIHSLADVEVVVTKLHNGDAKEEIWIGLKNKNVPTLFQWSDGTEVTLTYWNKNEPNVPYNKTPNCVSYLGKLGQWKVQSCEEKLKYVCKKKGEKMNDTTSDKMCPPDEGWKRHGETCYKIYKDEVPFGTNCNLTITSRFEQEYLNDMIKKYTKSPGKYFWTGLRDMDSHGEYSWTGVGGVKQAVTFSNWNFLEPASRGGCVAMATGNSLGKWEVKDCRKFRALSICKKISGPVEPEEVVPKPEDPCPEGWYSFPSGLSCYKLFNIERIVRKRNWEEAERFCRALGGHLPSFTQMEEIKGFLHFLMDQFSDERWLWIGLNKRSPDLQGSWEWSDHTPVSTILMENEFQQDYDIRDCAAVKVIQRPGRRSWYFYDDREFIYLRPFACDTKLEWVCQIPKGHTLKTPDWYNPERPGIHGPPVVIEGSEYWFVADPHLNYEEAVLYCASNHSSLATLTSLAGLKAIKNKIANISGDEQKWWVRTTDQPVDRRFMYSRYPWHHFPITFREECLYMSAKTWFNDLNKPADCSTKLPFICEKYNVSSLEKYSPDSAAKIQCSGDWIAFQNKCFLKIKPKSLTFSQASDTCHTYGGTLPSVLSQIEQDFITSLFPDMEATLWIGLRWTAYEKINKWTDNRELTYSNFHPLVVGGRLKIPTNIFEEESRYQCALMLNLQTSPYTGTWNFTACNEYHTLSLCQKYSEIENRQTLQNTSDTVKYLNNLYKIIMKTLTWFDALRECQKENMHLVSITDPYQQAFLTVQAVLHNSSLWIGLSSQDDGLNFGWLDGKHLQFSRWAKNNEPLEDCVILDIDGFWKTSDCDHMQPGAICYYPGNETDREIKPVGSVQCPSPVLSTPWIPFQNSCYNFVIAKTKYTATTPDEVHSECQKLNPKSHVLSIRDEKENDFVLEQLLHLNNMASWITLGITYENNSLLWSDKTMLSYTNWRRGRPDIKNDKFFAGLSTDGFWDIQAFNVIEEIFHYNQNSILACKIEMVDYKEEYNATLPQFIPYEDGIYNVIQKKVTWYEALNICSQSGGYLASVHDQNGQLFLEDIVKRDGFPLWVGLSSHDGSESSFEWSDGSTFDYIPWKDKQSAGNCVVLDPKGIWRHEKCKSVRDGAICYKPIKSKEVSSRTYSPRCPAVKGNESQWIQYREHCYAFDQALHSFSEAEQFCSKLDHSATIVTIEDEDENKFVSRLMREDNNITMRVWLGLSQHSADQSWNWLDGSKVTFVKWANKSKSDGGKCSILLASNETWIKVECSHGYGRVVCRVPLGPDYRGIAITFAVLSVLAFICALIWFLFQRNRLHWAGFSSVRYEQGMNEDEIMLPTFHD

binding result: no binding
B1: murine monoclonal antibody 2F2E8E3B6 anti-CTLD-2 (antibody, IgG2a, V domains shown)
VH: EVQLQQSTAEFVKPGASVKLSCTASGFNIKDTYIHWVKQRPEQGLEWIGRIDPANGNTRYDPKFQGKATMTADTSSNTAYLQLSSLTSEDTAVYYCARYDVTYWGQGTLVTVS
VL: DIVMSQSPSSLAVSAGERVTMSCKSSQSLLNSRTRKNYLAWYQQKPGQSPKLLIYWASTRESGVPDRFTGSGSGTDFTLTISSVRAEDLAVYYCKQSYNLYTFGRGTKLEIK
notes: also called 2F2E8D3B6; AbM 2F2E8E3B6
